In US20250263489A1 (TEIJIN PHARMA, published 2025):
Substitutions are numbered along the chain they refer to. Where two headings read alike, the source gives them in different places. Each block holds one binder with its values, some of them ahead of it.

Legend:
[1] = target: T1, IGF-1 receptor on the cells of the PathHunter IGF1R Functional Assay (DiscoverX) (UniProt P08069 31-1367); experiment: cell-based or functional assay
[2] = target: T1, IGF-1 receptor on the cells of the …; experiment: cell-based or functional assay; remark: listed apart in the source
[3] = target: T1, IGF-1 receptor on the cells of the …; experiment: cell-based or functional assay; remark: listed apart in the source
[4] = target: rat IGF-1 receptor expressed on HEK293T cells (rat, UniProt P24062 31-1370); experiment: cell-based ELISA on fixed HEK293T cells expressing the receptor, compared with Mock cells
Experimental: (§1) HEK293T cells were transfected by lipofection method with pEF1 expression vectors (Thermo Fisher) incorporated with the IGF-1 receptor genes of rabbit (SEQ ID NO: 76), guinea pig (SEQ ID NO: 78), rat (SEQ ID NO: 80) and mouse SEQ ID NO: 82). The transfected HEK293T cells were allowed to grow overnight or longer after the lipofection, and were then added to a 96-well plate (poly-D-lysine coated) at 4×10⁴ cells/well. The cells were then fixed in 10% buffered formalin (Mildform® 10NM, Wako) and blocked with phosphate buffer containing 3% BSA before used for ELISA.
(§2) ELISA was carried out as follows. 100 μL of each humanized antibody solution prepared at 5 nM in 1% BSA/1% FBS/PBS was added to each well, and reacted at 37° C. for about 1 hour. Anti-human IgG antibody HRP conjugate solution prepared at each concentration in 1% BSA/1% FBS/PBS was added to each well at 100 μL, reacted at 37° C. for about 1 hour, and washed three times with washing solution. The reaction was initiated by adding 100 μL of substrate (TMB) to each well. After about 30 minutes, 100 μL of 1M sulfuric acid was added to each well, the absorbances at 450 and 650 nm were measured, and the difference between the absorbances at 450 nm and at 650 nm was calculated. The calculated difference was compared with the difference between the absorbances at 450 nm and at 650 nm for HEK293T cells without IGF-1 receptor gene (Mock) to analyze the binding activity.

[5] = target: mouse IGF-1 receptor expressed on HEK293T cells (mouse, UniProt Q60751 31-1373); experiment: as above
Experimental: as §1, §2

[6] = target: crab-eating macaque IGF-1 receptor expressed on HEK293T cells (crab-eating macaque); experiment: cell-based ELISA on fixed HEK293T cells expressing the receptor, antibody at 5 nM
crab-eating macaque IGF-1 receptor expressed on HEK293T cells (crab-eating macaque), sequence (chain, as listed by the source limits assumed): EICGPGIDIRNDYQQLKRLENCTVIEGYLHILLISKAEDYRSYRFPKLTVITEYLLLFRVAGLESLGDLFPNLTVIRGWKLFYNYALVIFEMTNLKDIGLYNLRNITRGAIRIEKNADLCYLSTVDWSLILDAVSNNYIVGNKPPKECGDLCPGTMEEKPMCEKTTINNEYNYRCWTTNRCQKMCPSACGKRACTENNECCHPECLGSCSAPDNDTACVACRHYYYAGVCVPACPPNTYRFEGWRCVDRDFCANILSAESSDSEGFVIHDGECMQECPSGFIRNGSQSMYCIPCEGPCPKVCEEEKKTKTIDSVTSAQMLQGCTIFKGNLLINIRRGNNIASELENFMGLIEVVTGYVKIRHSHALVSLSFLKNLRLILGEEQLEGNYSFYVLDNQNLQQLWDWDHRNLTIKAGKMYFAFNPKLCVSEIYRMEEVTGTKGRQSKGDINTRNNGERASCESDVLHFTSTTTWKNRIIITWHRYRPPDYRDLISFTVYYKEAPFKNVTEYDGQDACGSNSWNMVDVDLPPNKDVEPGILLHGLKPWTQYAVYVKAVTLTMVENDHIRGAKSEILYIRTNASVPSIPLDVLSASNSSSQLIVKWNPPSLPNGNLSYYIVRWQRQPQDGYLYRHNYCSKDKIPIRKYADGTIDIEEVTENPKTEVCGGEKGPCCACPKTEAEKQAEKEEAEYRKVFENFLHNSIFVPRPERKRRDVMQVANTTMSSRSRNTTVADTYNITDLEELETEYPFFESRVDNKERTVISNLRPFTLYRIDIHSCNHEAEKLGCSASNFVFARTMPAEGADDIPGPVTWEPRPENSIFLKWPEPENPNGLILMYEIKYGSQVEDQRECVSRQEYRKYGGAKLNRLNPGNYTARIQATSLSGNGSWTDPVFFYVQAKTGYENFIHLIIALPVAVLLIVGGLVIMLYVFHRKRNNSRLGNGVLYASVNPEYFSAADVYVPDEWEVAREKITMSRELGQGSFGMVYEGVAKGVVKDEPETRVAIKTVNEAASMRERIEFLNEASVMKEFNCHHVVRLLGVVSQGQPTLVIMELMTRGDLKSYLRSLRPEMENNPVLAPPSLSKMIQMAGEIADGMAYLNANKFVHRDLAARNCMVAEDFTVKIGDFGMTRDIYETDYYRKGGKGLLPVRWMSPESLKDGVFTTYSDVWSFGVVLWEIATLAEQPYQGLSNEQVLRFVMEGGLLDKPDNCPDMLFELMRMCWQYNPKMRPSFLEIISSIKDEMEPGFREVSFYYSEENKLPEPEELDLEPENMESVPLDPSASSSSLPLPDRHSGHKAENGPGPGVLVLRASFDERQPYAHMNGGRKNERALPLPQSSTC

[7] = target: T2, rabbit IGF-1 receptor expressed on HEK293T cells (rabbit); experiment: as above
T2 sequence (chain, as listed by the source limits assumed): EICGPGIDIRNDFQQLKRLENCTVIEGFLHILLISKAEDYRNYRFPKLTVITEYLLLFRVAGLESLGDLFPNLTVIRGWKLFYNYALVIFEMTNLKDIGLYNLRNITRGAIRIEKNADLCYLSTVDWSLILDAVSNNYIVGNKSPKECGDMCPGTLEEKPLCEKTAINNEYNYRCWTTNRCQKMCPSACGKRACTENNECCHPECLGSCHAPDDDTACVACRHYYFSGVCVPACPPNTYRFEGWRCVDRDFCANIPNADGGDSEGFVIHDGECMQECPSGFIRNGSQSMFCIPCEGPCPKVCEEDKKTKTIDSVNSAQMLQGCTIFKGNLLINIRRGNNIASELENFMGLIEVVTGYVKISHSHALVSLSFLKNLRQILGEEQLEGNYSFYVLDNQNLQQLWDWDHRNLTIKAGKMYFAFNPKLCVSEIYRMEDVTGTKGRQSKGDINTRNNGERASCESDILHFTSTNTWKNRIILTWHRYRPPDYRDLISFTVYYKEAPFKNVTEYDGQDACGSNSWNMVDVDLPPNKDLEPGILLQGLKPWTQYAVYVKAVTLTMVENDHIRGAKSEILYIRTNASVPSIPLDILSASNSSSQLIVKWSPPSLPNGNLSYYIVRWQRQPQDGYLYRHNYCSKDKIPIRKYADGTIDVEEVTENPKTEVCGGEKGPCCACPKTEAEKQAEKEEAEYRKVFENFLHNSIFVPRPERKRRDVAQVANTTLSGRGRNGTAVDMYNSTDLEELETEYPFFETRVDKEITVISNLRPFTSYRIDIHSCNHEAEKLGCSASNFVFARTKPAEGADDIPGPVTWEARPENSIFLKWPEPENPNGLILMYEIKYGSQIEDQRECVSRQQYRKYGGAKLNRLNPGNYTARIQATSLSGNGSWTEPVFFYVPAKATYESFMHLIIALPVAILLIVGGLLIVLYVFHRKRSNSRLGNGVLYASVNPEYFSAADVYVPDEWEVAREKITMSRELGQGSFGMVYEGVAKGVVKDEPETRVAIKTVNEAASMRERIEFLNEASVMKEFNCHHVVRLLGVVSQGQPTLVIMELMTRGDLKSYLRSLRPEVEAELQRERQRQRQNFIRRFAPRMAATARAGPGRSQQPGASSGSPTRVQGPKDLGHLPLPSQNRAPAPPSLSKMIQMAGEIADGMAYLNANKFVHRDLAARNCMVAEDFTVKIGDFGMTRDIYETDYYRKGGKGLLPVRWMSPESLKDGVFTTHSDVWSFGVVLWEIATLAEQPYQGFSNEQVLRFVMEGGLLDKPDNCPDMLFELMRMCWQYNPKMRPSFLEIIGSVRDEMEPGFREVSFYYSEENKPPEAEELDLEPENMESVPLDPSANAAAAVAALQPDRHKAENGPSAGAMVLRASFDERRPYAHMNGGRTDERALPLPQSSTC

[8] = target: T3, guinea pig IGF-1 receptor expressed on HEK293T cells (guinea pig, UniProt P08069 31-1367 (human entry)); experiment: as above
T3 sequence (P08069 other isoform, or with tags, fused parts or gaps limits assumed): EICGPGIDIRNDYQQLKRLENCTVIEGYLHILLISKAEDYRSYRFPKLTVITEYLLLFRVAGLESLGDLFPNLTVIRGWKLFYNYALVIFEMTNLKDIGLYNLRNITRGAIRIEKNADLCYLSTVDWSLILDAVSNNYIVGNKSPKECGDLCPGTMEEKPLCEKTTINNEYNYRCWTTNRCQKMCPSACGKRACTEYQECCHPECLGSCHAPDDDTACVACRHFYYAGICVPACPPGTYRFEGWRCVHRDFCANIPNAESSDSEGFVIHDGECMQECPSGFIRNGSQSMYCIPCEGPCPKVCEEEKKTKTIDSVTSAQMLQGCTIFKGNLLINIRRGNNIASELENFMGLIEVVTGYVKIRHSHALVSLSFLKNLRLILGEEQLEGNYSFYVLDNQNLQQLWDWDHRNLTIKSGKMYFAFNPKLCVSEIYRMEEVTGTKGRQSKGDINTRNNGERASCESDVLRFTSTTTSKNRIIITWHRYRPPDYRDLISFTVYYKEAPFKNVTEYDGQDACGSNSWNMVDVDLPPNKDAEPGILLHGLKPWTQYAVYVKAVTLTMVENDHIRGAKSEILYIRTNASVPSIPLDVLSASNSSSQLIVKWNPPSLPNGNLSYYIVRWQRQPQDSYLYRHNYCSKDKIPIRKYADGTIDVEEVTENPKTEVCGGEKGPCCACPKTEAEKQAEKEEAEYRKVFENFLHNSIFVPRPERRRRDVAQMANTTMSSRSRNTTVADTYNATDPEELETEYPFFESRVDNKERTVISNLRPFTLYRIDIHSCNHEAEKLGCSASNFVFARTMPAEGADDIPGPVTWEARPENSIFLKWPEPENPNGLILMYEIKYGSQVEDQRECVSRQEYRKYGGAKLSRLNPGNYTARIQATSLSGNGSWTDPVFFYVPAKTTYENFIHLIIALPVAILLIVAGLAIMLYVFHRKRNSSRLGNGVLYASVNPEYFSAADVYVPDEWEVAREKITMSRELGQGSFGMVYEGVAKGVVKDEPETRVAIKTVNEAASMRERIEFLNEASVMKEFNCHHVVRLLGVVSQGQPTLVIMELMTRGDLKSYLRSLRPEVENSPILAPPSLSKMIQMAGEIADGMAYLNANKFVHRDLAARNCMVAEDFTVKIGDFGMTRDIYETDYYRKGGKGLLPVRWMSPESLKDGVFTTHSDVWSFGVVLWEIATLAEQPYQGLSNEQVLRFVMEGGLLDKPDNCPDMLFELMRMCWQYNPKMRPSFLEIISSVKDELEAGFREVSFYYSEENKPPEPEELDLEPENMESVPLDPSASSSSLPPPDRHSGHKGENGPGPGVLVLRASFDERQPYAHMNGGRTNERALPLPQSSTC

[9] = target: T4, human IGF-1 receptor expressed on HEK293T cells (human, UniProt P08069 31-1367); experiment: as above
T4 construct: Cells fixed in formalin before the ELISA; also called human IGF-1 receptor-expressing cells
T4 sequence (P08069 31-1367 limits assumed): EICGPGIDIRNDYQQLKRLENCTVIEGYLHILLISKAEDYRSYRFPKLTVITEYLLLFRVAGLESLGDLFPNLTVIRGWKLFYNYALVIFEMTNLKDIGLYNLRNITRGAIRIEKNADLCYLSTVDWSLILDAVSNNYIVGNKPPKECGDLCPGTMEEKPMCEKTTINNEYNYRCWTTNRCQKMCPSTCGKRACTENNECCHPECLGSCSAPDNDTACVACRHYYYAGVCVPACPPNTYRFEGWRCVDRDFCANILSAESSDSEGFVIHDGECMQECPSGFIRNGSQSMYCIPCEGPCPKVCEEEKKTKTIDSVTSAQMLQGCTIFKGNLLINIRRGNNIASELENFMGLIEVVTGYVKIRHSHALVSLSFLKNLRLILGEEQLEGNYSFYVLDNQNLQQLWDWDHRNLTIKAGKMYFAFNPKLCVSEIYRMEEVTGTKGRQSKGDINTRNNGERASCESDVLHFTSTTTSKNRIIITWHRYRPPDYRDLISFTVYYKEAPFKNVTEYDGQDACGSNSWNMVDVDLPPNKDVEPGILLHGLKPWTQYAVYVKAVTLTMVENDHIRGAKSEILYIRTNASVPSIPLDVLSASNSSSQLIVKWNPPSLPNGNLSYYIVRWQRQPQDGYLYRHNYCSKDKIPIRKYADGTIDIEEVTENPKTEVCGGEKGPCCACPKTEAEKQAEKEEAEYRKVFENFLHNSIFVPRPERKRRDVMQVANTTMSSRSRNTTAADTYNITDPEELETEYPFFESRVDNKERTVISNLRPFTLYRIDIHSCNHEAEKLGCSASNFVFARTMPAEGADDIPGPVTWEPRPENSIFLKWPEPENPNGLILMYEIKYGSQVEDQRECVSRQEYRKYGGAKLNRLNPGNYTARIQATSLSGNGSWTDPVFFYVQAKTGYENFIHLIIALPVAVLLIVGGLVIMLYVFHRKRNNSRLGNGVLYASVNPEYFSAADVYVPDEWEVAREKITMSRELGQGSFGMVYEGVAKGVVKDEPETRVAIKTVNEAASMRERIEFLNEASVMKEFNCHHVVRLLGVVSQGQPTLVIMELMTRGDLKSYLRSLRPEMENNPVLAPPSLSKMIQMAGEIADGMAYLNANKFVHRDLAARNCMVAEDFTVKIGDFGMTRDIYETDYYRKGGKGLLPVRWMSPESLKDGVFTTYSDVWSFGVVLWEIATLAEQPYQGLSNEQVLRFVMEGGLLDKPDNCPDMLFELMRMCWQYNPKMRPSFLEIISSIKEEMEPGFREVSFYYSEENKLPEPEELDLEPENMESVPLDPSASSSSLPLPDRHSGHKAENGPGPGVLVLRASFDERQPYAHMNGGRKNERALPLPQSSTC

[10] = target: T1, IGF-1 receptor on the cells of the …; experiment: cell-based or functional assay; remark: listed apart in the source
[11] = target: T2, rabbit IGF-1 receptor expressed on …; experiment: cell-based ELISA on fixed HEK293T cells expressing the IGF-1R, antibody at 5 nM, anti-human IgG HRP, absorbance 450 nm minus 650 nm
Experimental: as §1
as §2, with “The reaction was initiated by adding 100 μL of substrate (TMB) to each well.” left out

[12] = target: T3, guinea pig IGF-1 receptor expressed on …; experiment: as above
Experimental: as §1
as §2, with “The reaction was initiated by adding 100 μL of substrate (TMB) to each well.” left out

[13] = target: T1, IGF-1 receptor on the cells of the …; experiment: cell-based or functional assay; remark: listed apart in the source

T1 sequence (P08069 31-1367): as the sequence (P08069 31-1367 limits assumed) above

B2: humanized antibody hIGF13_PS (antibody, V domains shown)
VH: QVQLVQSGAEVKKPGASVKVSCKAPGYTFTSYWMHWVRQAPGQGLEWMGETNPSSSVTNYAQKFQGRVTLTVDTSTSTAYMELSSLRSEDTATYYCTIGRGRGFAYWGQGTLVTVSS
VL: DIQMTQSPSSLSASVGDRVTITCRASQNINFWLSWYQQKPGKVPKLLIYKASNLHTGVPSRFSGSGSGTDFTLTISSLQPEDVATYYCLQGQSYPYTFGGGTKLEIK
notes: also called VL23/VH13_PS
binding result [4]: no binding (tested: 5 nM)
binding result [5]: no binding (tested: 5 nM)
binding activity, fold compared to Mock cells [6]: ~2 fold
binding activity, fold compared to Mock cells [7]: ~2 fold
binding activity, fold compared to Mock cells [8]: ~2 fold
binding activity, fold compared to Mock cells [9]: ~2 fold

B3: FW1-var9-mFR-H3 (antibody, V domains shown)
VH: B2 VH with P25S, S55N, T74K, T76S, E82Q, R87T, T91S, T93V, S117A
VL: B2 VL with L11V, V43A, V83F
Signal intensity (ratio to IGF11-16) at 16.7 nM, PathHunter [10]: 0.7 ratio to human chimeric IGF11-16

B5: FW1_var9-hH6a (antibody, V domains shown)
VH: B2 VH with V20L, P25S, S55N, T93V
VL: B2 VL with L11V, V43A, V83F
Signal intensity ratio (compared to IGF11-16) at 16.7 nM, PathHunter [3]: 0.55 ratio to IGF11-16

B10: FW1-var9-mFR-L1 (antibody, V domains shown)
VH: B2 VH with P25S, S55N, T93V
VL: B2 VL with T5N, V15L, R18T, V19I, V43A, V83F
Signal intensity (ratio to IGF11-16) at 16.7 nM, PathHunter [10]: 0.51 ratio to human chimeric IGF11-16

B12: humanized antibody hIGF25_PS (antibody, V domains shown)
VH: B2 VH with T93V
VL: B2 VL
notes: also called VL23/VH25_PS
binding result [4]: no binding (tested: 5 nM)
binding result [5]: no binding (tested: 5 nM)
binding activity, fold compared to Mock cells [6]: ~2 fold
binding activity, fold compared to Mock cells [7]: ~2 fold
binding activity, fold compared to Mock cells [8]: ~2 fold
binding activity, fold compared to Mock cells [9]: ~2 fold

B14: human chimeric IGF11-16 antibody (antibody, V domains shown)
VH: QIQLQQPGAELVKPGASVKLSCKAPGYTFTSYWMHWVKQRPGQGLEWIGETNPSNSVTNYNEKFKSKATLTVDKSSSTAYMQLSSLTSEDSAVYYCTIGRGRGFAYWGQGTLVTVSA
VL: B2 VL with T5N, V15L, R18T, V19I, Y36C, K42N, V43I, V83I
notes: also called Chimera; human mouse chimeric antibody IGF11-16
Signal intensity (ratio to IGF11-16) at 16.7 nM, PathHunter [10]: 1 ratio to human chimeric IGF11-16
binding result [11]: binds
binding result [12]: binds

B15: IGF11-16 with alanine substitution of W at position 32 (CDR-L1) (antibody, V domains shown)
VH: B14 VH
VL: B2 VL with T5N, V15L, R18T, V19I, W32A, Y36C, K42N, V43I, V83I
Signal activation EC50 vs IGF11-16, PathHunter [13]: 9.5 ratio vs IGF11-16
Signal activation Emax vs IGF11-16, PathHunter [13]: 1.5 ratio vs IGF11-16

The remaining lines, values ahead:

Activation intensity (RLU), PathHunter [1]: 1600 RLU
Fluorescence intensity (0.1 nM) (RLU), PathHunter [1]: 555 RLU
Fluorescence intensity (12.5 nM) (RLU), PathHunter [1]: 2160 RLU
Ratio of activation intensity, PathHunter [1]: 0.74 relative to IGF11-16
Activation intensity (RLU), PathHunter [2]: 2270 RLU
Fluorescence intensity (0.1 nM) (RLU), PathHunter [2]: 209 RLU
Fluorescence intensity (12.5 nM) (RLU), PathHunter [2]: 2480 RLU
Ratio of activation intensity, PathHunter [2]: 0.64 relative to IGF11-16
Signal intensity ratio (compared to IGF11-16) at 16.7 nM, PathHunter [3]: 0.66 ratio to IGF11-16
B1: FW1_var1 antibody (antibody, V domains shown)
VH: B2 VH with P25S, S55N, T93V
VL: B2 VL with L11V, Y36C, V43I, V83F

Signal intensity (ratio to IGF11-16) at 16.7 nM, PathHunter [10]: 0.51 ratio to human chimeric IGF11-16
B4: FW1-var9-mFR-H2 (antibody, V domains shown)
VH: B2 VH with P25S, R38K, A40R, M48I, S55N, T93V
VL: B2 VL with L11V, V43A, V83F

Signal intensity ratio (compared to IGF11-16) at 16.7 nM, PathHunter [3]: 0.65 ratio to IGF11-16
B6: FW1_var9-hH4a (antibody, V domains shown)
VH: B2 VH with V11L, P25S, S55N, T93V
VL: B2 VL with L11V, V43A, V83F

Signal intensity (ratio to IGF11-16) at 16.7 nM, PathHunter [10]: 1.08 ratio to human chimeric IGF11-16
B7: FW1-var9-mFR-H1 (antibody, V domains shown)
VH: B2 VH with V2I, V5Q, S7P, V11L, K12V, V20L, S55N, T93V
VL: B2 VL with L11V, V43A, V83F

Signal intensity (ratio to IGF11-16) at 16.7 nM, PathHunter [10]: 0.5 ratio to human chimeric IGF11-16
B8: FW1-var9-mFR-L2 + L3 (antibody, V domains shown)
VH: B2 VH with P25S, S55N, T93V
VL: B2 VL with L11V, K42N, V43I, V83I

Signal intensity ratio (compared to IGF11-16) at 16.7 nM, PathHunter [3]: 1.09 ratio to IGF11-16
B9: FW1_var9-hH7a (antibody, V domains shown)
VH: B2 VH with S55N, T93V
VL: B2 VL with L11V, V43A, V83F

Signal intensity ratio (compared to IGF11-16) at 16.7 nM, PathHunter [3]: 0.56 ratio to IGF11-16
B11: FW1_var9-hH5a (antibody, V domains shown)
VH: B2 VH with K12V, P25S, S55N, T93V
VL: B2 VL with L11V, V43A, V83F

Activation intensity (RLU), PathHunter [1]: 2180 RLU
Fluorescence intensity (0.1 nM) (RLU), PathHunter [1]: 557 RLU
Fluorescence intensity (12.5 nM) (RLU), PathHunter [1]: 2730 RLU
Ratio of activation intensity, PathHunter [1]: 1 relative to IGF11-16
Activation intensity (RLU), PathHunter [2]: 3570 RLU
Fluorescence intensity (0.1 nM) (RLU), PathHunter [2]: 230 RLU
Fluorescence intensity (12.5 nM) (RLU), PathHunter [2]: 3800 RLU
Ratio of activation intensity, PathHunter [2]: 1 relative to IGF11-16
Signal intensity ratio (compared to IGF11-16) at 16.7 nM, PathHunter [3]: 1 ratio to IGF11-16
B13: mouse parent antibody IGF11-16 (antibody, mouse IgG1, kappa, V domains shown)
VH: B14 VH
VL: DIQMNQSPSSLSASLGDTITITCRASQNINFWLSWCQQKPGNIPKLLIYKASNLHTGVPSRFSGSGSGTDFTLTISSLQPEDIATYYCLQGQSYPYTFGGGTKLEIKR
